B1: Lon protease homolog, mitochondrial (Homo sapiens), P36776-1 (parent)
chain: MAASTGYVRLWGAARCWVLRRPMLAAAGGRVPTAAGAWLLRGQRTCDASPPWALWGRGPAIGGQWRGFWEASSRGGGAFSGGEDASEGGAEEGAGGAGGSAGAGEGPVITALTPMTIPDVFPHLPLIAITRNPVFPRFIKIIEVKNKKLVELLRRKVRLAQPYVGVFLKRDDSNESDVVESLDEIYHTGTFAQIHEMQDLGDKLRMIVMGHRRVHISRQLEVEPEEPEAENKHKPRRKSKRGKKEAEDELSARHPAELAMEPTPELPAEVLMVEVENVVHEDFQVTEEVKALTAEIVKTIRDIIALNPLYRESVLQMMQAGQRVVDNPIYLSDMGAALTGAESHELQDVLEETNIPKRLYKALSLLKKEFELSKLQQRLGREVEEKIKQTHRKYLLQEQLKIIKKELGLEKDDKDAIEEKFRERLKELVVPKHVMDVVDEELSKLGLLDNHSSEFNVTRNYLDWLTSIPWGKYSNENLDLARAQAVLEEDHYGMEDVKKRILEFIAVSQLRGSTQGKILCFYGPPGVGKTSIARSIARALNREYFRFSVGGMTDVAEIKGHRRTYVGAMPGKIIQCLKKTKTENPLILIDEVDKIGRGYQGDPSSALLELLDPEQNANFLDHYLDVPVDLSKVLFICTANVTDTIPEPLRDRMEMINVSGYVAQEKLAIAERYLVPQARALCGLDESKAKLSSDVLTLLIKQYCRESGVRNLQKQVEKVLRKSAYKIVSGEAESVEVTPENLQDFVGKPVFTVERMYDVTPPGVVMGLAWTAMGGSTLFVETSLRRPQDKDAKGDKDGSLEVTGQLGEVMKESARIAYTFARAFLMQHAPANDYLVTSHIHLHVPEGATPKDGPSAGCTIVTALLSLAMGRPVRQNLAMTGEVSLTGKILPVGGIKEKTIAAKRAGVTCIVLPAENKKDFYDLAAFITEGLEVHFVEHYREIFDIAFPDEQAEALAVER
partner: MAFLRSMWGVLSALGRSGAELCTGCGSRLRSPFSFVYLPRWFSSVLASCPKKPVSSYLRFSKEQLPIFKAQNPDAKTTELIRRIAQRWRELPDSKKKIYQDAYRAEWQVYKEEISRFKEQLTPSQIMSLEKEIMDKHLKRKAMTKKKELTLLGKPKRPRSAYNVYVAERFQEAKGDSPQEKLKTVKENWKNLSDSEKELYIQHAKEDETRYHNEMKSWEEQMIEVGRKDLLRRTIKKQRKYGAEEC

This experiment covers variants of B1. To be noted: with tfam_human TFAM.
R721G: the “effect of a mutation on the interaction” value is recorded as “with no effect”.

For the variant P676S, the “effect of a mutation on the interaction” value is recorded as “with no effect”.

Source of the values: IntAct's records for PubMed 25574826.
